From patent US20140221622A1 (AbbVie / Abbott, published 2014)
Changes are numbered by the printed parent chain. Where two headings read alike, the source gives them in different places.

Legend:
[1] = target: EGFR on EGFR-expressing target cells (UniProt P00533 25-1210, limits assumed); test: cell-based or functional assay
[2] = target: T1, CD3 on Jurkat cells (UniProt P07766 23-207); test: flow cytometry on Jurkat cells, Alexa Fluor 488 anti-human IgG Fc
T1 construct: whole, on cells; CD3 is a multi-chain complex; also called CD3 antigen
Method: 0.5×10⁶ of Jurkat or NCI-N87 cells were washed with FACS buffer (1% BSA/PBS) and resuspended in 50 ul of FACS buffer. mAbs or Fab-bodies were prepared in 50 ul of FACS buffer and mixed with cells and incubated at 4° C. for 1 hr.

[3] = target: T2, biotin-labeled cMet (UniProt P08581 25-932, limits assumed, biotin label (site not stated)); test: ELISA: antibody captured on anti-IgG Fc coat, bound biotin-labeled cMet detected with streptavidin-HRP
T2 construct: also called cMet antigen
T2 sequence (P08581 25-932 limits assumed): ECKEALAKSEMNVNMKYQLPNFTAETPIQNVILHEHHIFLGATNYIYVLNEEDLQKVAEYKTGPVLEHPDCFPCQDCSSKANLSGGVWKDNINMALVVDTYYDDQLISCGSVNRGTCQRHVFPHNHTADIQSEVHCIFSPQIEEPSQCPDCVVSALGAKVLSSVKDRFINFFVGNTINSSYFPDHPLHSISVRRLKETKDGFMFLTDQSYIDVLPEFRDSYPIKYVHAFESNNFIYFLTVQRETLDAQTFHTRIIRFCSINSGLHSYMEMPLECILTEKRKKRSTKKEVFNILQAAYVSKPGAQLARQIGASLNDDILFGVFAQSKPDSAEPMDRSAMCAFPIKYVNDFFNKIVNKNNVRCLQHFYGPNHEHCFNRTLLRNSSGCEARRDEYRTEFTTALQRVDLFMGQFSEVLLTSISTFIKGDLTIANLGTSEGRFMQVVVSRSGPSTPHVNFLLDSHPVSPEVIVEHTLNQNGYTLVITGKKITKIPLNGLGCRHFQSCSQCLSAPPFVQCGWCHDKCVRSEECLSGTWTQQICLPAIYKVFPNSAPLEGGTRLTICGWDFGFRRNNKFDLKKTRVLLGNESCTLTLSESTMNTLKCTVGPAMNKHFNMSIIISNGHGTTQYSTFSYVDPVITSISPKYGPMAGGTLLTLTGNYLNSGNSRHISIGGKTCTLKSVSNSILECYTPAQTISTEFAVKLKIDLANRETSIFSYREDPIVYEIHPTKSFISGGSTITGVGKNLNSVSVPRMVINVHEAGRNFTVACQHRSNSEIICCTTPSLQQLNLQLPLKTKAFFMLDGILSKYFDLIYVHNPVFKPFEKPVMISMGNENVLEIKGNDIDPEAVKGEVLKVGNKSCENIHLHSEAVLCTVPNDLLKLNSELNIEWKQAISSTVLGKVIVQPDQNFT

[4] = target: T3, c-Met on tumor cell lines (A549, IM-95, SNU-5, SNU-620) (UniProt P08581 25-1390, limits assumed); test: cell-based or functional assay
T3 sequence (P08581 25-1390 limits assumed): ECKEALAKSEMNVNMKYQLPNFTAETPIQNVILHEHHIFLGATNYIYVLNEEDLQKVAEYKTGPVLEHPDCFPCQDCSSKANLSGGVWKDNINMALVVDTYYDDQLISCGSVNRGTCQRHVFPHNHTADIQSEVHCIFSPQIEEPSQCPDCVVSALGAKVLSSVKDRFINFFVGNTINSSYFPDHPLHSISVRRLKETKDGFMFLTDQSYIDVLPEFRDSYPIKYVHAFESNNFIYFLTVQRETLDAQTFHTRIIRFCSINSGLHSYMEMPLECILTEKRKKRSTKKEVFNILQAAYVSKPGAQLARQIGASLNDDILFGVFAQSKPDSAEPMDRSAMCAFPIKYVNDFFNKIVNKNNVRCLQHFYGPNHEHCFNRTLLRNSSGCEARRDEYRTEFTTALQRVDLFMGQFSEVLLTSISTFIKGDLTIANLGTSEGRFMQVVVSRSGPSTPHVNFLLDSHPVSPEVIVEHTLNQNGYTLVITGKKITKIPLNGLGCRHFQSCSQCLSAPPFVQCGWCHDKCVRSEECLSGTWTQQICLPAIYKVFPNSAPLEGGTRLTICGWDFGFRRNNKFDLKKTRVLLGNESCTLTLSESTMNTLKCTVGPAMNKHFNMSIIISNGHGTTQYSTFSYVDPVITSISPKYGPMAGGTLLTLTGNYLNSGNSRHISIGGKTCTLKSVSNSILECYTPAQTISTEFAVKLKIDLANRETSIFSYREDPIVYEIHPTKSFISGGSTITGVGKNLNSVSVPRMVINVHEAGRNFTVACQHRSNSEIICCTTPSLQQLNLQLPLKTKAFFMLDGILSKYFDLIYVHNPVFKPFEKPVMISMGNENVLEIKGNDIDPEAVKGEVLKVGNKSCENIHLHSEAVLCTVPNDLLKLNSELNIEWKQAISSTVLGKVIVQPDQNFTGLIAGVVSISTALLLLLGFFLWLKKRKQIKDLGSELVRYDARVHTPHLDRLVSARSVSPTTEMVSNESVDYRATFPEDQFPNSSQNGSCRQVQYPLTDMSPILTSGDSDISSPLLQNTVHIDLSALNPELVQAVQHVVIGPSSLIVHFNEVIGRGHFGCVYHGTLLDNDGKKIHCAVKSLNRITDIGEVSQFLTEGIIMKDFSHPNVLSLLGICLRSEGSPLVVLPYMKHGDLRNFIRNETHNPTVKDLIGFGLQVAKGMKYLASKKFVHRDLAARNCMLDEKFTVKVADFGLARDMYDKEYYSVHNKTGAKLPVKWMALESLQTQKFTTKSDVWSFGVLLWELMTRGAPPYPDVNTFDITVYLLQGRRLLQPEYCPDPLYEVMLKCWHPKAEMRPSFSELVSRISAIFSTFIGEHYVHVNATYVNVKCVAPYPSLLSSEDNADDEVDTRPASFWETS

[5] = target: T4, Neonatal Fc receptor (FcRn) on CHO-FcRnGPI cells; test: flow cytometry on CHO-FcRnGPI cells, pH 6.4
T4 construct: whole, on cells; nothing more is said; also called FcRn receptors
T4 sequence (P55899 24-297, chain 1 of 2): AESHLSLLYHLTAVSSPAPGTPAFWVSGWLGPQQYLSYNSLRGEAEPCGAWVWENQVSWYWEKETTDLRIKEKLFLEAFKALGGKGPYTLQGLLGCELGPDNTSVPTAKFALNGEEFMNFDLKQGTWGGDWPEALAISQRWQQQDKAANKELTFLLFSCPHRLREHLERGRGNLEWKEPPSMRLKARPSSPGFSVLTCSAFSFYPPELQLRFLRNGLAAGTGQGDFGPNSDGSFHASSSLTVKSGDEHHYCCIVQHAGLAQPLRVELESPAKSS
T4 sequence (P61769 21-119, chain 2 of 2, further chain): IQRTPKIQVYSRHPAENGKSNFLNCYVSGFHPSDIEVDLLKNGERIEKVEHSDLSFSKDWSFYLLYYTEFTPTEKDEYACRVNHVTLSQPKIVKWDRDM
Method: CHO-FcRnGPI cells (Stable FcRn receptor expressor) and CHO-pBudl l cells (non-FcRn expressor) were aliquotted into 96-well plates at 1×10⁵ cells/well. Cells were resuspended in 150 μl FACS buffer. […] 30 μl of diluted antibody or half-Ig binding protein was added to each well and incubated on ice for 1 hour. Following 2 washes with FACS buffer, 50 μl of secondary antibody R-phycoerythrin-conjugated AfiniPure F(ab′)2 Fragment goat anti-human IgG (Jackson ImmunoResearch, West Grove, Pa.) diluted in FACS buffer pH 6.4 or pH7.4 was added. The mixture was incubated for 30 min on ice. The cells were resuspended in 100 μl PBS with 1% FBS (Invitrogen, Carlsbad, Calif.) and 2 μg/ml propidium iodide (Invitrogen, Carlsbad, Calif.) of the corresponding pH. Final FACS data were acquired on a FACScan (Becton Dickinson, Franklin Lakes, N.J.).

[6] = target: T2, biotin-labeled cMet; test: ELISA: antibody captured on anti-IgG Fc coat, bound biotin-labeled cMet detected with streptavidin-HRP; remark: listed apart in the source
Method: (§1) cMet binding ELISA was performed to characterize the antigen binding property of cMet antibodies. 96-well ELISA plates were coated with 100 μl/well 5 μg/ml anti-mouse IgG Fc in PBS at 4° C. overnight. After 3 washes with PBS/0.05% Tween®20, the plates were blocked with 5% milk in PBS for 1 hour at room temperature. After another 3 washes with PBS/0.05% Tween®20, 100 μl cMet antibody was added to each well followed by an incubation of 1 hour at room temperature. Binding biotin-labeled cMet was detected by Streptavidin-horseradish peroxidase (KPL, Gaithersburg, Md.) and tetramethylbenzidine (Thermo Scientific, Rockford, Ill.). Final absorbances were acquired at 450 nm after stopping the reactions with 2 mol/L H₂SO₄. […] The terms EC₅₀ and IC₅₀ may be used interchangeably in this Example to reflect the concentration of the antibody which induces a response halfway between the baseline and the maximum after a specified exposure time.

[7] = target: T5, rhcMetECD (cMet extracellular domain) (human, UniProt P08581 25-932); test: SPR (Biacore 3000), binding protein captured on anti-human IgG Fc, rhcMetECD injected, 1:1 Langmuir fit, 25 C
T5 construct: extracellular domain; also called cMet antigen
T5 sequence (P08581 25-932): as the sequence (P08581 25-932 limits assumed) above
Method: The kinetics of MBody binding to rhcMetECD (extracellular domain) was determined by surface plasmon resonance-based measurements with a Biacore 3000 instrument (Biacore AB, Uppsala, Sweden) using HBS-EP (10 mM HEPES, pH 7.4, 150 mM NaCl, 3 mM EDTA, and 0.005% surfactant P20) at 25° C. […] Approximately, 5000 RU of goat anti-human IgG Fcγ fragment specific polyclonal antibody (Pierce Biotechnology Inc, Rockford, Ill.) diluted in 10 mM sodium acetate (pH 4.5) was directly immobilized across a CM5 research grade biosensor chip using a standard amine coupling kit according to manufacturer's instructions and procedures at 25 mg/ml. Unreacted moieties on the biosensor surface were blocked with ethanolamine. Modified carboxymethyl dextran surface in flowcell 2 and 4 was used as a reaction surface. Unmodified carboxymethyl dextran without goat anti-human IgG in flow cell 1 and 3 was used as the reference surface. For kinetic analysis, rate equations derived from the 1:1 Langmuir binding model were fitted simultaneously to association and dissociation phases of all ten injections (using global fit analysis) using the Bioevaluation 4.0.1 software. Purified MBody samples were diluted in HEPES-buffered saline for capture across goat anti-human IgG Fc specific reaction surfaces and injected over reaction matrices at a flow rate of 5 ml/min. […] The equilibrium dissociation constant (M) of the reaction between MBody and rhcMetECD was then calculated from the kinetic rate constants by the following formula: KD=koff/kon. Aliquots of rhcMetECD samples were also simultaneously injected over a blank reference and reaction CM surface to record and subtract any nonspecific binding background to eliminate the majority of the refractive index change and injection noise. Surfaces were regenerated with two subsequent 25 ml injections of 10 mM Glycine (pH 1.5) at a flow rate of 5 ml/min.

[8] = target: T5, rhcMetECD (cMet extracellular domain); test: SPR (Biacore 3000), apparent stoichiometry at saturating rhcMetECD
From the text: Unreacted moieties on the biosensor surface were blocked with ethanolamine. Modified carboxymethyl dextran surface in flowcell 2 and 4 was used as a reaction surface. Unmodified carboxymethyl dextran without goat anti-human IgG in flow cell 1 and 3 was used as the reference surface. For kinetic analysis, rate equations derived from the 1:1 Langmuir binding model were fitted simultaneously to association and dissociation phases of all ten injections (using global fit analysis) using the Bioevaluation 4.0.1 software. Purified MBody samples were diluted in HEPES-buffered saline for capture across goat anti-human IgG Fc specific reaction surfaces and injected over reaction matrices at a flow rate of 5 ml/min. […] The equilibrium dissociation constant (M) of the reaction between MBody and rhcMetECD was then calculated from the kinetic rate constants by the following formula: KD=koff/kon. Aliquots of rhcMetECD samples were also simultaneously injected over a blank reference and reaction CM surface to record and subtract any nonspecific binding background to eliminate the majority of the refractive index change and injection noise. […] The apparent stoichiometry of the captured MBody-rhcMetECD complex was calculated under saturating binding conditions (steady-state equilibrium) using the following formula:

[9] = target: T6, CD40 on CD40-overexpressing HEK 293 cells (UniProt P25942 21-277, limits assumed); test: flow cytometry on CD40-overexpressing HEK 293 cells, APC anti-human Fc
T6 construct: whole, on cells
T6 sequence (P25942 21-277 limits assumed): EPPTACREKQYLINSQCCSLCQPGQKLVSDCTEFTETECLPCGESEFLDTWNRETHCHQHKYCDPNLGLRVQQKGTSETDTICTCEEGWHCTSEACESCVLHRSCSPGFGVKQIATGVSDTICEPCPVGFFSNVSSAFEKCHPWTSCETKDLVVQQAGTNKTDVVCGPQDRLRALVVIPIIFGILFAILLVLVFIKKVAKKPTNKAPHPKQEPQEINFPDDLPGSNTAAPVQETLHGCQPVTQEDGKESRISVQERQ
Method: Followed by 30 min incubation on ice with an APC-conjugated anti-human Fc antibody. Cells then are washed twice and resuspended in PBS/FBS. Fluorescence was measured using a Becton Dickinson FACSCalibur (Becton Dickinson, San Jose, Calif.).

[10] = target: T6, CD40 on CD40-overexpressing HEK 293 …; test: as above; remark: listed apart in the source
Method: First, the CD40-overexpressing HEK 293 cells were stained with hIgG1 or testing material at a range of 0.01 μg/ml to 10 μg/ml. Followed by 30 min incubation on ice with an APC-conjugated anti-human Fc antibody. Cells then are washed twice and resuspended in PBS/FBS. Fluorescence was measured using a Becton Dickinson FACSCalibur (Becton Dickinson, San Jose, Calif.).
The binding of proteins were examined by FACS.

[11] = target: T6, CD40 on CD40-overexpressing HEK 293 …; test: cell-based or functional assay
[12] = target: T3, c-Met on tumor cell lines (A549, IM-95, …); test: cell-based or functional assay; remark: listed apart in the source
[13] = target: T2, biotin-labeled cMet; test: c-Met binding ELISA by the method of Example 1.3
Method: as §1

B1: DB001 DVD-Ig (CD3 and EGFR) (bispecific antibody)
VH: QVQLQESGPGLVKPSQTLSLTCTVSGYSISSDFAWNWIRQPPGKGLEWMGYISYSGNTRYQPSLKSRITISRDTSKNQFFLKLNSVTAADTATYYCVTAGRGFPYWGQGTLVTVSSASTKGPEVQLVESGGGLVQPGGSLRLSCAASGFTFSTYAMNWVRQAPGKGLEWVGRIRSKYNNYATYYADSVKDRFTISRDDSKNTAYLQMNSLRAEDTAVYYCTRHGNFGNSYVSWFAYWGQGTLVTVSS
VL: DIQMTQSPSSMSVSVGDRVTITCHSSQDINSNIGWLQQKPGKSFKGLIYHGTNLDDGVPSRFSGSGSGTDYTLTISSLQPEDFATYYCVQYAQFPWTFGGGTKLEIKTVAAPSVFIFPPDAQVTQSPSSLSASVGDRVTITCRSSTGAVTTSNYANWVQEKPGKLFKGLIGGTNKRAPGVPSRFSGSGSGTDATLTISSLQPEDFATYFCALWYSNLWVFGGGTKVEIKR
notes: also called parental DVD-Ig
For B1, the “Redirected Cytotoxicity (rCTL), EC50” value [1] was 1.5 nM and the EC50 [2] was 74 nM.

B2: cMet Ig (anti-cMet antibody, 5D5 variable domains on human Cg1/Ck) (antibody, human IgG1, kappa)
heavy: not shown
light: DFMMSQSPSSLTVSVGEKVTVSCKSSQSLLYTSSQKNYLAWYQQKPGQSPKLLIYWASTRESGVPDRFTGSGSGTDFTLTITSVKADDLAVYYCQQYYAYPWTFGGGTKLELKRTVAAPSVFIFPPSDEQLKSGTASVVCLLNNFYPREAKVQWKVDNALQSGNSQESVTEQDSKDSTYSLSSTLTLSKADYEKHKVYACEVTHQGLSSPVTKSFNRGEC
notes: VH/VL cloned from hybridoma HB-11895 (5D5.11.6) into pHybE-hCg1,z,non-a and pHybE-hCk; also called cMet mAb; parental cMet mAb
B2 was tested, and the EC50 [3] was 0.35 nM, the “Inhibition of IM95 Proliferation, EC50” value [4] was 0.17 µg/mL and the EC50 [5] was 53.3 µg/mL. It also gave an EC50 [6] of 0.3 nM, a Kd [7] of 2.67 nM and a koff [7] of 0.000214 s⁻¹. It also gave a kon [7] of 80300 M⁻¹ s⁻¹ and a Stoichiometry [8] of 1.51.

B3: cMet mAb KH (cMet mAb with knobs-into-holes mutations) (antibody, human IgG1, kappa)
heavy 1: not shown
heavy 2: not shown
light: B2 light
B3 gave an EC50 [5] of 44.4 µg/mL, a Kd [7] of 2.08 nM and a koff [7] of 0.000195 s⁻¹. It also gave a kon [7] of 93600 M⁻¹ s⁻¹ and a Stoichiometry [8] of 1.53.

B4: cMet AA3 KH MBody (antibody, human IgG1, kappa)
heavy 1: not shown
heavy 2: not shown
light: B2 light
In the case of B4, the “Inhibition of IM95 Proliferation, EC50” value [4] is reported as 2.14 µg/mL and the EC50 [5] is reported as 38 µg/mL.

B5: cMet AA4 Ig (antibody, human IgG1, kappa, V domains shown)
VH: QVQLQQSGPELVRPGASVKMSCRASGYTFTSYWLHWVKQRPGQGLEWIGMIDPSNSDTRFNPNFKDKATLNVDRSSNTAYMLLSSLTSADSAVYYCATYGSYAAPLDYWGQGTSVTVSS
VL: DFMMSQSPSSLTVSVGEKVTVSCKSSQSLLYTSSQKNYLAWYQQKPGQSPKLLIYWASTRESGVPDRFTGSGSGTDFTLTITSVKADDLAVYYCQQYYAYPWTFGGGTKLELKR
notes: HC CDR3 alanine-scanning mutant paired with the common cMet LC; also called Anti-cMet-AA4
Binder B5 has an EC50 [6] of 1.24 nM.

B6: cMet AA3 HK MBody (antibody, human IgG1, kappa)
heavy 1: not shown
heavy 2: not shown
light: B2 light
In the case of B6, the “Inhibition of IM95 Proliferation, EC50” value [4] is reported as 1.6 µg/mL and the EC50 [5] is reported as 34.8 µg/mL.

B7: cMet AA6 KH MBody (antibody, human IgG1, kappa)
heavy 1: not shown
heavy 2: not shown
light: B2 light
With B7 the “Inhibition of IM95 Proliferation, EC50” value [4] was 1.86 µg/mL and the EC50 [5] was 51.1 µg/mL.

B8: cMet AA2 HK MBody (antibody, human IgG1, kappa)
heavy 1: not shown
heavy 2: not shown
light: B2 light
B8 was tested, and the “Inhibition of IM95 Proliferation, EC50” value [4] was 0.23 µg/mL and the EC50 [5] was 31.5 µg/mL.

B9: cMet AA6 HK MBody (antibody, human IgG1, kappa)
heavy 1: not shown
heavy 2: not shown
light: B2 light
In the case of B9, the “Inhibition of IM95 Proliferation, EC50” value [4] is reported as 2.73 µg/mL and the EC50 [5] is reported as 47.1 µg/mL.

B10: cMet AA1 Ig (antibody, human IgG1, kappa, V domains shown)
VH: B5 VH with T98A, A103V, A104S
VL: B5 VL
notes: HC CDR3 alanine-scanning mutant paired with the common cMet LC; also called Anti-cMet-AA1
Binder B10 has an EC50 [6] of 7.25 nM.

B11: Anti-CD40 Ig (21.4.1 variable domains on human Cg1/Ck) (antibody, human IgG1, kappa)
heavy: not shown
light: DIQMTQSPSSVSASVGDRVTITCRASQGIYSWLAWYQQKPGKAPNLLIYTASTLQSGVPSRFSGSGSGTDFTLTISSLQPEDFATYYCQQANIFPLTFGGGTKVEIKRTVAAPSVFIFPPSDEQLKSGTASVVCLLNNFYPREAKVQWKVDNALQSGNSQESVTEQDSKDSTYSLSSTLTLSKADYEKHKVYACEVTHQGLSSPVTKSFNRGEC
In the case of B11, the EC50 [9] is reported as 0.24 µg/mL, the EC50 [10] is reported as 0.084 µg/mL and the “agonist activity, NFkB-SEAP reporter in HEK 293 cells, EC50” value [11] is reported as 0.12 µg/mL.

B12: Anti-CD40 LA (antibody, human IgG1, kappa, V domains shown)
VH: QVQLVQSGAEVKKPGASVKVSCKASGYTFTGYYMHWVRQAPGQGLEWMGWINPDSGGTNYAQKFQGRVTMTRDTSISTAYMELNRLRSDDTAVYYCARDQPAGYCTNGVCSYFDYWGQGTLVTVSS
VL: DIQMTQSPSSVSASVGDRVTITCRASQGIYSWLAWYQQKPGKAPNLLIYTASTLQSGVPSRFSGSGSGTDFTLTISSLQPEDFATYYCQQANIFPLTFGGGTKVEIKR
Work on B12 yielded an EC50 [10] of 0.189 µg/mL.

B13: Anti-CD40 VA (antibody, human IgG1, kappa, V domains shown)
VH: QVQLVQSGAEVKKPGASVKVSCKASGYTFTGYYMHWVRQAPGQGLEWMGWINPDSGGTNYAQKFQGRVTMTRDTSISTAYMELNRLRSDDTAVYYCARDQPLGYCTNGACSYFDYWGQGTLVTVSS
VL: B12 VL
With B13 the EC50 [10] was 0.125 µg/mL.

B14: Anti-CD40 YNV (antibody, human IgG1, kappa, V domains shown)
VH: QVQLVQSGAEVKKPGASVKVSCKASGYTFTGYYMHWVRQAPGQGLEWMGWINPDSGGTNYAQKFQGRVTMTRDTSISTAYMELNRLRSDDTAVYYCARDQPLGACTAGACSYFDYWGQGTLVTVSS
VL: B12 VL
B14: no binding (tested: 0.01 µg/ml to 10 µg/ml) [10].

B15: Anti-CD40 LYNV (antibody, human IgG1, kappa, V domains shown)
VH: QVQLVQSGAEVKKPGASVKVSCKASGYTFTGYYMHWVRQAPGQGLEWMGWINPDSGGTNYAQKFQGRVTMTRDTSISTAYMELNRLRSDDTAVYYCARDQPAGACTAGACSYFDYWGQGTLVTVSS
VL: B12 VL
B15: no binding (tested: 0.01 µg/ml to 10 µg/ml) [10].

B16: Anti-CD40 YA (antibody, human IgG1, kappa, V domains shown)
VH: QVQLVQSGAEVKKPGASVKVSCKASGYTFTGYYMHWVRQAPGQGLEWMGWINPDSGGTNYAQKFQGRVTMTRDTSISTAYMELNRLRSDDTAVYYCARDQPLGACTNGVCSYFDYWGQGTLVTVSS
VL: B12 VL
For B16, the EC50 [10] was 0.095 µg/mL.

B17: Anti-CD40 NA (antibody, human IgG1, kappa, V domains shown)
VH: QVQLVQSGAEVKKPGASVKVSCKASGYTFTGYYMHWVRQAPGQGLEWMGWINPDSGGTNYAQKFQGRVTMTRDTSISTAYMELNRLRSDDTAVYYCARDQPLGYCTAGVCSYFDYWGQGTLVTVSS
VL: B12 VL
For B17, the EC50 [10] was 2.12 µg/mL.

B18: MetMAb1 (antibody, V domains shown)
VH: EVQLVESGGGLVQPGGSLRLSCAASGYTFTSYWLHWVRQAPGKGLEWVGMIDPSNSDTRFNPNFKDRFTISADTSKNTAYLQMNSLRAEDTAVYYCATYRSYVTPLDYWGQGTLVTVSS
VL: DIQMTQSPSSLSASVGDRVTITCKSSQSLLYTSSQKNYLAWYQQKPGKAPKLLIYWASTRESGVPSRFSGSGSGTDFTLTISSLQPEDFATYYCQQYYAYPWTFGQGTKVEIKR
notes: also called monovalent c-Met antibody MetMAb1
In the case of B18, the “Inhibition of HGF-induced phospho-c-Met IC50 (A549 cells)” value (from here on “Inhibition … (A549 cells)”) [12] is reported as 3.8 nM, the “Inhibition of IM-95 proliferation (HGF-dependent) IC50” value (“Inhibition of IM-95 proliferation” for short) [12] is reported as 17.4 nM and the “Inhibition of SNU-5 proliferation (constitutively active c-Met) IC50” value (from here on “Inhibition of SNU-5 proliferation”) [12] is reported as greater than 600 nM. The “Inhibition/induction of SNU-620 proliferation (constitutively active c-Met but still HGF-inducible) IC50” value (“Inhibition/induction” below) [12] was greater than 600 nM and the EC50 [13] was 0.27 nM.

B19: anti-cMet h5D5 Fab-body (antibody, human IgG1, kappa, V domains shown)
VH: B18 VH
VL: B18 VL
notes: Monovalent Fab-Fc heterodimer: LFc chain (VL-CL-linker-Fc knob) and HFc chain (VH-CH1-linker-Fc hole)
With B19 the “Inhibition … (A549 cells)” value [12] was 2.6 nM, the “Inhibition of IM-95 proliferation” value [12] was 12.8 nM and the “Inhibition of SNU-5 proliferation” value [12] was 4.1 nM. The “Inhibition/induction” value [12] was greater than 600 nM and the EC50 [13] was 0.24 nM.

B20: Anti-human c-Met antibody 5D5 (antibody, V domains shown)
VH: B5 VH with A103V, A104S
VL: B5 VL
notes: VH and VL are those cloned from hybridoma HB-11895 (5D5.11.6); also called bivalent antibody 5D5
B20 was tested, and the “Inhibition … (A549 cells)” value [12] was 1.4 nM, the “Inhibition of IM-95 proliferation” value [12] was 5.8 nM and the “Inhibition of SNU-5 proliferation” value [12] was greater than 600 nM. The EC50 [13] was 0.08 nM.

B21: cMet AA5 Ig (antibody, human IgG1, kappa, V domains shown)
VH: B5 VH with A103V, A104S
VL: B5 VL
notes: the intended AA5 mutation is not visible; also called Anti-cMet-AA5
In the case of B21, the EC50 [6] is reported as 1.81 nM.

B22: 5D5 Fab (Fab, V domains shown)
VH: B5 VH with A103V, A104S
VL: B5 VL
In the case of B22, the “Inhibition … (A549 cells)” value [12] is reported as 5.9 nM, the “Inhibition of IM-95 proliferation” value [12] is reported as 55.7 nM and the “Inhibition of SNU-5 proliferation” value [12] is reported as greater than 600 nM. The “Inhibition/induction” value [12] was greater than 600 nM.
